Data from patent US20140286983A1.

Key:
[1] = biological target: DENV-2 virus (strain 16681) (Dengue virus serotype 2 strain 16681) (UniProt P29990); assay: cell-based or functional assay
[2] = biological target: DENV-1 virus (strain 56BC94/95) (Dengue virus serotype 1 strain 56BC94/95); assay: cell-based or functional assay
[3] = biological target: DENV-4 virus (strain 130) (Dengue virus serotype 4 strain 130); assay: cell-based or functional assay
[4] = biological target: DENV-3 virus (strain 116RC1396) (Dengue virus serotype 3 strain 116RC1396); assay: cell-based or functional assay
[5] = biological target: DENV-1 VLP mutant L107D (Dengue virus serotype 1 strain (56)BC94/95; C-terminal 20% Japanese encephalitis virus)
[6] = biological target: DENV-1 VLP mutant K310D (Dengue virus serotype 1 strain (56)BC94/95; C-terminal 20% Japanese encephalitis virus)
[7] = biological target: DENV-1 VLP mutant K310DE311KP364Q (Dengue virus serotype 1 strain (56)BC94/95; C-terminal 20% Japanese encephalitis virus)
[8] = biological target: DENV-1 VLP mutant E311K (Dengue virus serotype 1 strain (56)BC94/95; C-terminal 20% Japanese encephalitis virus)
[9] = biological target: DENV-1 VLP mutant G106R (Dengue virus serotype 1 strain (56)BC94/95; C-terminal 20% Japanese encephalitis virus)
[10] = biological target: DENV-1 VLP mutant P364Q (Dengue virus serotype 1 strain (56)BC94/95; C-terminal 20% Japanese encephalitis virus)
[11] = biological target: DENV-1 VLP mutant G106RL107D (Dengue virus serotype 1 strain (56)BC94/95; C-terminal 20% Japanese encephalitis virus)
[12] = biological target: DENV-1 VLP mutant G106RL107DK310DE311KP364Q (pVD1-CRR VLP antigen) (Dengue virus serotype 1 strain (56)BC94/95; C-terminal 20% Japanese encephalitis virus)

| Substance | Nt50 (µg/mL), FRµNT [1] [µg/mL] | Nt50 (µg/mL), FRµNT [2] [µg/mL] | Nt50 (µg/mL), FRµNT [3] [µg/mL] | Nt50 (µg/mL), FRµNT [4] [µg/mL] | percent of remaining reactivity compared to WT [5] [%] | percent of remaining reactivity compared to WT [6] [%] | percent of remaining reactivity compared to WT [7] [%] | percent of remaining reactivity compared to WT [8] [%] | percent of remaining reactivity compared to WT [9] [%] | percent of remaining reactivity compared to WT [10] [%] | percent of remaining reactivity compared to WT [11] [%] | percent of remaining reactivity compared to WT [12] [%] |
| --- | --- | --- | --- | --- | --- | --- | --- | --- | --- | --- | --- | --- |
| MAb 1A1D-2 (antibody) | 0.46 | 1.68 | > 20 | 1.26 | 100 | 1.5 | < 0.8 | 50 | 25 | 100 | 100 | < 0.1 |
| MAb 3H5 (antibody) | 0.15 | > 20 |  |  |  |  |  |  |  |  |  |  |
| MAb 4G2 (antibody) |  |  |  |  | < 0.1 | < 0.1 | 100 | 100 | < 0.1 | < 0.1 | < 0.1 | < 0.1 |
| MAb 6B6C-1 (antibody) |  |  |  |  | 50 | 100 | 50 | 100 | 12.5 | 100 | 0.8 | 3 |
